Data on 26 molecules can be found in patent publication US20250320312A1 (OXITOPE PHARMA B V, published 2025).

Residue numbers refer to the chain shown, from its start.

One may read the EC50 as the concentration needed to bring the measured effect to its halfway point.

For assay [1], the target named is BSA (UniProt P02769). Put plainly: scFv ELISA. (In general: ELISA stands for enzyme-linked immunosorbent assay.)
The target in assay [2] is T1, Peptide 4: Biotin-AGGGGSGGGGSGGGGSAAA-Tyr-acid (N-terminal biotin; C-terminal acid).
T1 construct: control peptide without PC
T1 peptide: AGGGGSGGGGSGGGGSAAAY
Nature of the assay: scFv ELISA. In a few lines:
(§1)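 Bound scFv was read as OD450 after HRP–anti-V5 detection, TMB development and HCl stop. PPE with BSA was incubated 1 h at RT on BSA-blocked wells coated overnight at 4° C. with peptide, or on streptavidin wells loaded 1 h with biotinylated PC-peptides at 1 μg/mL.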

The target of assay [3] is T2, Peptide 1: Biotin-AGGGGSGGGGSGGGGSAAA-[Tyr(PC)]-acid (N-terminal biotin; C-terminal Tyr(PC), PC = p-diazophenyl phosphoryl choline; C-terminal acid).
T2 construct: synthetic PC-conjugated peptide; the antibodies are directed at the phosphocholine group
T2 peptide: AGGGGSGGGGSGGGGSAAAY
Put plainly: scFv ELISA. In a few lines:
as §1

The target of assay [4] is T3, Peptide 5: Biotin-AEAAAKEAAAKEAAAKEAAAKAAA-[Tyr(PC)]-acid (N-terminal biotin; C-terminal Tyr(PC), PC = p-diazophenyl phosphoryl choline; C-terminal acid).
T3 construct: synthetic PC-conjugated peptide; the antibodies are directed at the phosphocholine group
T3 peptide: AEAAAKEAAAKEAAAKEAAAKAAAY
Nature of the assay: scFv ELISA. The method in brief: as §1

For assay [5], the target named is T4, Peptide 8: Biotin-AEAAAKEAAAKEAAAKEAAAKAAA-Tyr-acid (N-terminal biotin; C-terminal acid).
T4 construct: control peptide without PC
T4 peptide: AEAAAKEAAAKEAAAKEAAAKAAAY
Put plainly: scFv ELISA. In a few lines:
as §1

The target of assay [6] is PC-BSA. Nature of the assay: ELISA (DELFIA TRF), PC-BSA coated, titrated IgG1.
PC-BSA, sequence (P02769 25-607 limits assumed, form in doubt): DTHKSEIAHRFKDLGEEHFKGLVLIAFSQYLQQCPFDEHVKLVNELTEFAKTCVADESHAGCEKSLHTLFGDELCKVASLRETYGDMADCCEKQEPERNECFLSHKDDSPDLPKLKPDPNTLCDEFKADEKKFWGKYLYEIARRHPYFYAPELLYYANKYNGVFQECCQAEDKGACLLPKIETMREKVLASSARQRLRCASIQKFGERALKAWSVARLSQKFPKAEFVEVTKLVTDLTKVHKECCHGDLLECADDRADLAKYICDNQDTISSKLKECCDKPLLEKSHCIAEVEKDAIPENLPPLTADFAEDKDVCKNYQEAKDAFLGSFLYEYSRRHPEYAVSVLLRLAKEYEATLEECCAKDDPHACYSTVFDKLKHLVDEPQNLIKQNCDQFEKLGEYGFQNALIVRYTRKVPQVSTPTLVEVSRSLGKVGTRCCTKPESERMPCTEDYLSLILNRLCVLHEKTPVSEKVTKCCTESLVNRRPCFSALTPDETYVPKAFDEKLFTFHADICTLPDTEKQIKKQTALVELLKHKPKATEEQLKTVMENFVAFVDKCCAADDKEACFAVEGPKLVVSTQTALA
Assay [7] addresses BSA (UniProt P02769). Nature of the assay: scFv ELISA, periplasmic extract on coated BSA, anti-V5-HRP detection.
In assay [8] the target is T5, Peptide 8: Biotin-…-Tyr-acid.
T5 sequence (peptide, N-terminal biotin; C-terminal acid): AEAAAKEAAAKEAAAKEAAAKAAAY
Put plainly: scFv ELISA, periplasmic extract on coated peptide, anti-V5-HRP detection.

Assay [9] deals with T6, Peptide 4: Biotin-…-Tyr-acid.
T6 sequence (peptide, N-terminal biotin; C-terminal acid): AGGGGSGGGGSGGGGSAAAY
The description is as above.

Assay [10] has as its target Peptide 5: Biotin-…-[Tyr(PC)]-acid. Nature of the assay: scFv ELISA.
The target of assay [11] is T7, Peptide 8: Biotin-AEAAAKEAAAKEAAAKEAAAKAAA-Tyr-acid (N-terminal biotin; C-terminal acid; no PC).
T7 construct: control peptide without PC
T7 peptide: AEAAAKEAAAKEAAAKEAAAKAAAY
Nature of the assay: scFv ELISA. The method in brief: as §1

Assay [12] addresses T8, Peptide 4: Biotin-AGGGGSGGGGSGGGGSAAA-Tyr-acid (N-terminal biotin; C-terminal acid; no PC).
T8 construct: control peptide without PC
T8 peptide: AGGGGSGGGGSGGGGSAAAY
Put plainly: scFv ELISA. In a few lines: as §1

Assay [13] addresses T9, Peptide 1: Biotin-AGGGGSGGGGSGGGGSAAA-[Tyr(PC)]-acid (N-terminal biotin; C-terminal Tyr(PC), PC = p-diazophenyl phosphoryl choline; C-terminal acid).
T9 peptide: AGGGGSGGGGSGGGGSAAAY
Put plainly: scFv ELISA. The method in brief: as §1

Assay [14] addresses T10, Peptide 5: Biotin-AEAAAKEAAAKEAAAKEAAAKAAA-[Tyr(PC)]-acid (N-terminal biotin; C-terminal Tyr(PC), PC = p-diazophenyl phosphoryl choline; C-terminal acid).
T10 peptide: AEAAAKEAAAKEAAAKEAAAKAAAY
Nature of the assay: scFv ELISA. In a few lines: as §1

Assay [15] concerns the target T11, Peptide 1: Biotin-AGGGGSGGGGSGGGGSAAA-[Tyr(PC)]-acid (N-terminal biotin; C-terminal Tyr(PC), PC = p-diazophenyl phosphoryl choline; C-terminal acid).
T11 construct: Synthetic phosphocholine-conjugated peptide
T11 peptide: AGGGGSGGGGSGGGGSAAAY
Put plainly: scFv ELISA. In a few lines:
as §1

The target in assay [16] is T12, Peptide 8: Biotin-AEAAAKEAAAKEAAAKEAAAKAAA-Tyr-acid (N-terminal biotin; C-terminal acid).
T12 construct: Control peptide without PC
T12 peptide: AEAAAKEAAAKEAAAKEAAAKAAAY
Nature of the assay: scFv ELISA. In a few lines:
as §1

In assay [17] the target is T13, Peptide 4: Biotin-AGGGGSGGGGSGGGGSAAA-Tyr-acid (N-terminal biotin; C-terminal acid).
T13 construct: Control peptide without PC
T13 peptide: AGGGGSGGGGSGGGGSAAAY
Put plainly: scFv ELISA. In a few lines: as §1

BSA, sequence (P02769 25-607 limits assumed): as the sequence (P02769 25-607 limits assumed, form in doubt) above

B1: PcOxP_DB02_E06 (scFv, V domains shown)
VH: EVQLLESGGGLVQPGGSLRLSCAASGFTFSDEYMEWVRQAPGKGLEWVAASRGKGNSYTTEYADSVKGRFTISRDNSKNTLYLQMNSLRAEDTAVYYCARDYYGSSYWYFDVWGQGTLVTVSS
VL: DIQMTQSPSSLSASVGDRVTITCTASESLYSSKHKVHYLAWYQQKPGKAPKLLIYGASNRYIGVPSRFSGSGSGTDFTLTISSLQPEDFATYYCAQFYSYPLTFGGGTKVEIK
notes: scFv in periplasmic extract
Take B1: the OD450 in assay [1] was determined as 0.1 OD450; in [2] it was 0.04 OD450; in assay [3], 0.06 OD450; in [4] it was 0.08 OD450; in assay [5] it was 0.04 OD450.

B2: PcOxP_DB01_B06 (human IgG1) (antibody, V domains shown)
VH: B1 VH with D31S, E32Y, G53N, G55Y, S57D, Y107T
VL: DIVMTQSPDSLAVSLGERATINCTASESLYSSKHKVHYLAWYQQKPGQPPKLLIYGASNRYIGVPDRFSGSGSGTDFTLTISSLQAEDVAVYYCAQFYSYPLTFGGGTKVEIK
Consider B2, for which the EC50 in assay [6] was 219 pM.

B3: PcOxP_DB03_G03 (human IgG1) (antibody, V domains shown)
VH: B1 VH with F29S, E32F, G53N, G55A, S57D
VL: B1 VL with E27Q, L29I, Y30S, R60H
Consider B3, for which, in assay [6], the EC50 was determined as 216 pM.

B4: PcOxP_DB04_A09 (human IgG1) (antibody, V domains shown)
VH: B1 VH with E32Y, G53N, G55W, S57D
VL: B1 VL with S26E, R60L, I62S
As for B4, the EC50 in assay [6] came to 269 pM.

B5: PcOxP_DB01_F11 (human IgG1) (antibody, V domains shown)
VH: B1 VH with D31S, E32Y, G53N, G55A, S57D, F110Y
VL: B2 VL
B5 returned an EC50 in assay [6] of 244 pM.

B6: PcOxP_DB03_G12 (human IgG1) (antibody, V domains shown)
VH: B1 VH with E32Y, G53N, G55Y, S57D
VL: B2 VL with T24K, A25S, L29V, V36K
Consider B6, for which the EC50 in assay [6] is 557 pM.

B7: PcOxP_DB04_A04 (human IgG1) (antibody, V domains shown)
VH: B1 VH with E32F, G53N, G55W, S57D
VL: B2 VL with E27Q, L29V, H34N, V36K, S99R
B7: in [6], the EC50 stood at 294 pM.

B8: PcOxP_DB04_G11 (scFv) (scFv, V domains shown)
VH: B1 VH with E32H, G53W, G55A, S57D
VL: B2 VL with R60T
With B8, the OD450 in assay [7] came out at 0.07 OD450.

B9: PcOxP_DB01_F06 (human IgG1) (antibody, V domains shown)
VH: B1 VH with F27D, E32F, G53N, G55A, S57D
VL: B2 VL with T24K, A25S, E27Q, S31Y, K33S, H34N, V36K, H37N, I62G, S99R
As for B9, the EC50 in [6] amounted to 216 pM.

B10: PcOxP_DB02_G04 (human IgG1) (antibody, V domains shown)
VH: B1 VH with E32Y, G53W, G55A, S57D
VL: B2 VL with T24K, E27Q, L29V, Y30L, S31Y, H34N, V36K, Y61Q, S99V
For B10, the EC50 in [6] came to 231 pM.

B11: PcOxP_DB03_G11 (human IgG1) (antibody, V domains shown)
VH: B1 VH with D31S, E32Y, G53N, G55A, S57D
VL: B2 VL with T24K, A25S, E27Q, L29V, Y30L, V36K, H37N
B11 had an EC50 in [6] of 244 pM.

B12: PcOxP_DB03_E01 (human IgG1) (antibody, V domains shown)
VH: B1 VH with E32Y, G53N, G55A, S57D, T60V
VL: B1 VL with A57T, S99E
As for B12, in assay [6], the EC50 worked out at 857 pM.

B13: PcOxP_DB02_B04 (human IgG1) (antibody, V domains shown)
VH: B1 VH with E32Y, G53N, G55W, S57D
VL: B2 VL
In [6], B13 registered an EC50 of 278 pM.

B14: PcOxP_DB02_A05 (human IgG1) (antibody, V domains shown)
VH: B1 VH with F29G, E32F, G53N, G55W, S57D
VL: B2 VL with S58G
On to B14, for which the EC50 in [6] is 264 pM.

B15: PcOxP_DB04_G01 (human IgG1) (antibody, V domains shown)
VH: B1 VH with E32Y, G53N, G55W, S57D, G104L
VL: B2 VL with T24K, E27Q, L29V, Y30L, H34N, K35N, H37N, S99Q
For B15, in assay [6], the EC50 came out at 257 pM.

B16: PcOxP_DB04_H01 (scFv) (scFv, part only; not given: linker, domain order, V5 tag, V domains shown, not shown: another chain or arm of the molecule; small tags and cut ends)
VH: B1 VH with E32Y, G53N, G55Y, S57D
VL: B2 VL with I62S, S99N
For the molecule B16, the OD450 in [8] is 0.07 OD450; in assay [9] it was 0.06 OD450; in [7] it was 0.07 OD450.

B17: PcOxP_DB01_H08 (human IgG1) (antibody, V domains shown)
VH: B1 VH with F29H, E32F, G53N, G55A, S57D
VL: DIQMTQSPSSLSASVGDRVTITCRASESISSSKHKHYLAWYQQKPGKAPKLLIYGASNRYIGVPSRFSGSGSGTDFTLTISSLQPEDFATYYCAQFYVYPLTFGGGTKVEIK
Consider B17, for which the EC50 in assay [6] came out at 244 pM.

B18: PcOxP_DB03_G07 (human IgG1) (antibody, V domains shown)
VH: B1 VH with E32H, G53N, G55A, S57D, S105Q
VL: B1 VL
The molecule B18 came in with an EC50 in [6] of 636 pM.

B19: PcOxP_DB03_H03 (human IgG1) (antibody, V domains shown)
VH: B1 VH with F29G, E32F, G53N, G55W, S57D
VL: B17 VL with R24T, I29L, N58S, I61S, V98S
B19 had an EC50 in [6] of 229 pM.

B20: PcOxP_DB02_C09 (human IgG1) (antibody, V domains shown)
VH: B1 VH with E32A, G53N, G55A, S57D
VL: B1 VL with S58G, S99F
B20 registered an EC50 in assay [6] of 394 pM.

B21: PcOxP_DB04_E08 (human IgG1) (antibody, V domains shown)
VH: B1 VH with F29S, E32F, M34L, G53N, G55W, S57D
VL: B2 VL with A57V
B21: the EC50 in assay [6] came to 251 pM.

B22: PcOxP_DB02_F10 (human IgG1) (antibody, V domains shown)
VH: B1 VH with E32Q, G53N, G55A, S57D
VL: B2 VL with A25S, E27Q, L29V, Y30L, K35N, V36K, H37N, I62W
The molecule B22 gave a concentration giving a half-maximal response (EC50) in assay [6] of 659 pM.

B23: PcOxP_DB01_F04 (human IgG1) (antibody, V domains shown)
VH: B1 VH with D31S, E32Y, G53N, G55Y, S57D
VL: B1 VL with S58V, S99R
As for B23, in [6], the EC50 is 344 pM.

B24: PcOxP_DB01_H07 (scFv, V domains shown)
VH: B1 VH with E32H, G53N, G55Y, S57D, Y102I
VL: B2 VL with L29V, H34N, V36K
notes: scFv in periplasmic extract
As for B24, the OD450 was 0.07 OD450 in assay [1]; 0.92 OD450 in assay [10]; 0.05 OD450 in assay [11]; 0.05 OD450 in assay [12]; 0.1 OD450 in assay [13].

B25: PcOxP_DB01_H09 (scFv, V domains shown)
VH: B1 VH with E32Y, G53N, G55A, S57T, F110D
VL: B2 VL
notes: scFv in periplasmic extract
For B25, the OD450 in assay [1] is 0.09 OD450; in [11], 0.04 OD450; in [14], 0.09 OD450; in assay [12], 0.09 OD450; in [13], 0.06 OD450.

B26: PcOxP_DB02_H02 (scFv, V domains shown)
VH: B1 VH with F27P, E32F, G53N, G55A, S57D
VL: B2 VL with S99D
notes: scFv in periplasmic extract
Turning to B26, the OD450 in [1] was determined as 0.06 OD450; in [10], 0.19 OD450; in assay [15] it was 0.07 OD450; in [16] it was 0.06 OD450; in assay [17] it was 0.04 OD450.
